Test results: patent US20160369006A1

Molecular target: FcγRIIIA (CD16A) on transduced Jurkat cells (human) (UniProt P08637)
Assay: cell-based or functional assay
Parameters: EC50, NFAT-luciferase reporter in CD16A Jurkat cells with RMF-pulsed T2 cells (reverse signaling): unit not given beside the values

Sequence of FcγRIIIA (CD16A) on transduced Jurkat cells (human) (P08637 17-254): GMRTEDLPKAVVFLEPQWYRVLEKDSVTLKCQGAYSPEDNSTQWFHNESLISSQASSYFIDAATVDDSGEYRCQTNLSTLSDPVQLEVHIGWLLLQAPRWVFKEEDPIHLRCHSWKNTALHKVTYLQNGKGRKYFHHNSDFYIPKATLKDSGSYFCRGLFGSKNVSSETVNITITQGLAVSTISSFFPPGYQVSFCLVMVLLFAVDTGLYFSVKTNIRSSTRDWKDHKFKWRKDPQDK

EC50, NFAT-luciferase reporter in CD16A Jurkat cells with RMF-pulsed T2 cells (reverse signaling) | fold decrease in EC50 relative to wildtype ESK1, CD16A reporter | Substance
> 10000 |  | ESK1 containing D265A/P329A mutations in the Fc domain (ESK1 DAPA) (antibody)
0.17 | 5 fold | ESKM having 100% reduction in fucosylation (GlymaxX technology) (antibody)
